Test results from patent publication US20040072743A1 (priority 2000, published 2004).

Key:
[1] = female, NMRI, mouse, in vivo
[2] = female, NMRI, mouse, in vivo, sc

Substance	oral bioavailability (AUC [p.o. adm]/AUC [i.v. adm])×100% [1]	subcutaneous bioavailability (AUC [s.c.adm]/AUC [i.v. adm])×100% [2]
H-KFFKFFKFFK-achc-b.Ala-TTCTAACATTTA-NH2 [Compound V]	9%	68%
H-KFFKFFKFFK-b.cypr-g.abu-ACTTTGTCGCCA-NH2 [Compound IV]	24%	78%
H-KFFKFFKFFK-g.abu-PheGly-TTCTAACATTTA-NH2 [Compound VI]	6%	62%
H-KFFKFFKFFK-pfPhe-cha-TTCTAACATTTA-NH2 [Compound VII]	54%	69%
